Source: patent publication US20140079753A1, “BMP BINDING PEPTIDES” (Affinergy, LLC, priority 2011, published 2014)

B1: Truncation peptide SEQ ID NO: 185 (peptide)
peptide: IWDDWIGYSR
modifications: C-terminal GSSGK(biotin) or other spacer group possible; not stated for this assay
B2: Truncation peptide SEQ ID NO: 186 (peptide)
peptide: WDDWIGYSR
modifications: C-terminal GSSGK(biotin) or other spacer group possible; not stated for this assay
B3: Truncation peptide SEQ ID NO: 187 (peptide)
peptide: DDWIGYSR
modifications: C-terminal GSSGK(biotin) or other spacer group possible; not stated for this assay
B4: Truncation peptide SEQ ID NO: 188 (peptide)
peptide: DWIGYSR
modifications: C-terminal GSSGK(biotin) or other spacer group possible; not stated for this assay
notes: also called DWIGYSR
B5: Truncation peptide SEQ ID NO: 193 (peptide)
peptide: IWDDWIGYS
modifications: C-terminal GSSGK(biotin) or other spacer group possible; not stated for this assay
B6: Truncation peptide SEQ ID NO: 194 (peptide)
peptide: IWDDWIGY
modifications: C-terminal GSSGK(biotin) or other spacer group possible; not stated for this assay
B7: Truncation peptide SEQ ID NO: 195 (peptide)
peptide: WDDWIGY
modifications: C-terminal GSSGK(biotin) or other spacer group possible; not stated for this assay
notes: also called WDDWIGY
B8: Truncation peptide SEQ ID NO: 196 (peptide)
peptide: WDDWIG
modifications: C-terminal GSSGK(biotin) or other spacer group possible; not stated for this assay
notes: also called WDDWIG
B9: Truncation peptide SEQ ID NO: 197 (peptide)
peptide: IWDDWI
modifications: C-terminal GSSGK(biotin) or other spacer group possible; not stated for this assay
notes: also called IWDDWI

What follows are molecules tested on adipose derived stem cells (ASCs) (assay: Phage whole cell ELISA for ASC binding). Conditions: ranking among SEQ ID NO: 1 mutagenesis variants of Table 2.
Description: Peptides that bind adipose derived stem cells (ASCs) were identified by phage display biopanning. ASCs were culture amplified from processed liposuction aspirate (<3 passages) (ZEN-BIO, Research Triangle Park, N.C.). After biopanning, individual plaques were picked, grown overnight, and tested for ASC binding activity using whole cell ELISA according to the following procedure. Phage supernatant was incubated for 30 min at room temperature with ASC monolayers established by overnight culture in 96 well plates. Cells were washed four times with Dulbecco's Phosphate Buffered Saline (DPBS) containing 2% FBS, then incubated with 100 μl of horseradish peroxidase conjugated anti-M13 antibody. After 30 minutes at room temperature, cells were washed four times with DPBS containing 2% FBS. M13 antibody binding was detected by the addition of 3,3′,5,5′-Tetramethylbenzidine (TMB). Blue reaction product, indicating positive binding phage, was measured by absorbance at 370 nm in a microplate reader. For the phage displaying ASC binding activity, DNA sequences were analyzed and translated into peptide sequences using Vector NTI DNA Analysis software and are shown below in Table 1.
Mutagenesis of Cell Binding Peptide Sequence SEQ ID NO: 1. A focused phage display library was generated around the cell binding sequence SEQ ID NO: 1 with each nucleotide position varying in identity at a ratio of 70:10:10:10, with the original nucleotide being the dominant form. This is considered a form of “light” mutagenesis, retaining the majority of residue identities with a few amino acid identity changes. The construction of this “degenerate” phage library was performed according to the methods described in Kay et al., 1996. Three rounds of phage display biopanning were performed on ASCs to enrich for positive binding sequences. Phage showing positive binding to ASCs, identified by whole cell ELISA, were re-amplified, retested, and submitted for DNA sequencing to determine the insert amino acid sequences. In FIG. 14 the single letter amino acid sequence of SEQ ID NO: 1 is shown at the top in white letters with black shading. The phage that retained cell binding activity to adipose derived stem cells (ASCs) and fibroblasts are listed below SEQ ID NO: 1 with original amino acids in white with black shading. Amino acid substitutions are shown in black letters with white shading.

Molecule | binding affinity for ASCs
SNWTSSHDDIGVFLR [SEQ ID NO: 29] | highest binding affinity
SFWHVTHDSTGVLIR [SEQ ID NO: 4] | highest binding affinity
SSFHISHDNIGVFVR [SEQ ID NO: 9] | highest binding affinity
SAFHSSHDSIGVFIN [SEQ ID NO: 21] | highest binding affinity
SNWHITHDSIGVLVR [SEQ ID NO: 3] | highest binding affinity
SSWHISHDDIGVFIR [SEQ ID NO: 6] | highest binding affinity

Each molecule was assayed on human ASCs (assay: Flow cytometry binding of biotinylated peptides to cells (Neutravidin-PE)). Conditions: biotinylated peptide 25 μM, 30 min at 4° C, percent positivity vs Neutravidin-PE alone; data not shown.
Text: (§1) Synthetic biotinylated cell binding peptides SEQ ID NOs: 1 and 2 were examined for their ability to specifically bind ASCs compared to a number of other cells types including bone marrow mesenchymal stem cells (MSCs), dermal fibroblasts, red blood cells, monocytes, lymphocytes granulocytes, and platelets. The cell binding peptides were biotinylated as described herein at Example 2. Cultured cells of each type were either purchased (dermal fibroblasts) or isolated from human bone marrow (MSCs) or human blood. Cells were first harvested with 2 mM EDTA in DPBS and resuspended at 10^6/mL in PBS+2% fetal bovine serum (FBS). An aliquot of cells ([…]) was incubated in 50 μL of peptide solution (25 μM in PBS+FBS) for 30 min at 4° C. Cells were then washed twice in PBS+2% FBS with 300×g centrifugation for 5 min between washes. Fluorescently-tagged neutravidin (Neutravidin-PE from INVITROGEN) was then added to the cells to label biotinylated peptide bound to cells. Neutravidin-PE was diluted 1:250 from stock and applied at 50 μL to cells. Cells were then washed in PBS+FBS, and acquired on a BD FACSARRAY. Peptide reactivity was then measured as percent positivity relative to Neutravidin-PE staining without the addition of biotinylated peptide.

Molecule | binding to human ASCs
SSWHISHDSIGVLIR [SEQ ID NO: 1] | significant binding
SHCVLGHDGRSRCII [SEQ ID NO: 2] | significant binding

The molecules below were run on dermal fibroblasts in the same assay as above. Conditions: biotinylated peptide 25 μM, 30 min at 4° C, percent positivity vs Neutravidin-PE alone; data not shown.
Text: as §1

Molecule | binding to dermal fibroblasts
SSWHISHDSIGVLIR [SEQ ID NO: 1] | significant binding
SHCVLGHDGRSRCII [SEQ ID NO: 2] | significant binding

These molecules were tested against T1, BMP2 (Homo sapiens, UniProt P12643) (assay: BMP2 binding ELISA of synthetic truncation peptides). Conditions: relative to full-length SEQ ID NO: 148, ELISA.
T1 construct: purchased MEDTRONIC, INC
T1 sequence (P12643 283-396): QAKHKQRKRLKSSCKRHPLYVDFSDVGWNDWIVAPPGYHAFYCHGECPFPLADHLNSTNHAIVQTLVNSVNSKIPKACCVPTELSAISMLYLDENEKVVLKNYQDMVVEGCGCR
Parameters: key: (−) no binding; (+) binding similar to that of full-length SEQ ID NO: 148 binding; (−/+) binding decreased relative to full-length SEQ ID NO: 148 binding
Description: The relative binding affinity of synthetic BMP binding peptides SEQ ID NOs: 54-56 for BMP2 is shown in FIG. 17 (SEQ ID NO: 54 (Peptide 1); SEQ ID NO: 55 (Peptide 2); SEQ ID NO: 56 (Peptide 3)). Briefly, the results shown in FIG. 17 were generated by immobilizing biotinylated BMP binding peptides on streptavidin coated plates. Serial dilutions of 100 nM, 20 nM, 4 nM, 0.8 nM, 0.16 nM, 0.032 nM 0.006 nM, and 0.001 nM of BMP-2 were incubated with the immobilized BMP binding peptides for 60 minutes, washed 5 times, and bound BMP quantified using ELISA using mouse anti-BMP2 antibody and anti-mouse IgG-alkaline phosphatase conjugate. In addition, the specificity of BMP binding peptide binding SEQ ID NO: 54 to various members of the BMP family was performed in a similar manner by titrating BMP2, BMP3, BMP5, BMP6, GDF5, GDF7, TGFb1, TGFb3, and PDGF-BB (see FIG. 18).
(§2) For the truncation analysis, peptides with one or more N or C-terminal deletions of SEQ ID NO: 148 were synthesized and tested for BMP2 binding using an ELISA assay. The truncation peptides are shown in Table 5 below along with the relative BMP2 binding activity that was measured for each of the peptides according to the procedure described herein above. The relative BMP2 binding activity is depicted as follows: (−) no binding; (+) binding similar to that of full-length SEQ ID NO: 148 binding; (−/+) binding decreased relative to full-length SEQ ID NO: 148 binding.

Molecule | BMP2 binding
188 (DWIGYSR) [compound 188] | −
186 (WDDWIGYSR) [compound 186] | −
197 (IWDDWI) [compound 197] | −
190 (SIWDDWIGY) [compound 190] | +
189 (SIWDDWIGYS) [compound 189] | +
193 (IWDDWIGYS) [compound 193] | −
191 (SIWDDWIG) [compound 191] | −/+
195 (WDDWIGY) [compound 195] | −
192 (SIWDDWI) [compound 192] | −/+
148 (SIWDDWIGYSR) [compound 148] | +
187 (DDWIGYSR) [compound 187] | −
196 (WDDWIG) [compound 196] | −
185 (IWDDWIGYSR) [compound 185] | −
194 (IWDDWIGY) [compound 194] | −

What follows are molecules tested on rat fibroblasts (assay: Cell capture by biotinylated peptide on streptavidin plate (CELLTITER GLO)). Conditions: 45 min room temperature, cellular ATP, FIG. 15.
Format: cell-based
Description: (§3) In this experiment, the ability of biotinylated cell binding peptides SEQ ID NOs: 1 and 2 to capture ASCs and fibroblasts from a single cell suspension onto a solid support was examined. The cell binding peptides were biotinylated as described herein at Example 2. The cell binding peptides and control peptides lacking cell binding activity were added to a 96 well plate containing immobilized streptavidin. After 30 min at room temperature, excess peptide was washed away with PBS+0.1% Tween 20, followed by 2 washes with PBS. Dilutions of single cell suspensions of either human ASCs (hASCs), rabbit ASCs, rat fibroblasts, or human dermal fibroblasts (hDermFib) were added to the peptide coated wells and incubated for 45 min at room temperature with gentle shaking. Wells were washed 3 times with DPBS+2% FBS. The number of attached cells was determined by measuring cellular ATP with CELLTITER GLO reagent from PROMEGA.

Molecule | capture of rat fibroblasts
SSWHISHDSIGVLIR [SEQ ID NO: 1] | to a lesser extent
SHCVLGHDGRSRCII [SEQ ID NO: 2] | without exhibiting significant binding

Each molecule was assayed on human ASCs (hASCs) in the same assay as above. Conditions: 45 min room temperature, cellular ATP, FIG. 15.
Format: cell-based
Description: as §3

Molecule | capture of human ASCs
SSWHISHDSIGVLIR [SEQ ID NO: 1] | capture human ASCs
SHCVLGHDGRSRCII [SEQ ID NO: 2] | behaved similarly

Each molecule was assayed on rabbit ASCs in the same assay as above. Conditions: 45 min room temperature, cellular ATP, FIG. 15.
Format: cell-based
Description: as §3

Molecule | capture of rabbit ASCs
SSWHISHDSIGVLIR [SEQ ID NO: 1] | to a lesser extent
SHCVLGHDGRSRCII [SEQ ID NO: 2] | behaved similarly

The molecules below were run on human dermal fibroblasts (hDermFib) in the same assay as above. Conditions: 45 min room temperature, cellular ATP, FIG. 15.
Format: cell-based
Description: as §3

Molecule | capture of human fibroblasts
SHCVLGHDGRSRCII [SEQ ID NO: 2] | behaved similarly

These molecules were tested against T2, BMP2 (MEDTRONIC, INC.) (UniProt P12643 283-396, biotinylated with NHS-biotin (average of one biotin per protein molecule) in the phage ELISA; not biotinylated in the peptide ELISA) (assay: ELISA of synthetic truncation peptides on BMP2; legend in paragraph 124: (-) no binding). Conditions: not given.
T2 construct: also called bone morphogenic protein 2
Description: as §2

Molecule | binding result
B1 | no binding
B2 | no binding
B3 | no binding
B4 | no binding
B5 | no binding
B6 | no binding
B7 | no binding
B8 | no binding
B9 | no binding
